Experimental data from patent US7226603.

B1: fd fusion phage carrying … (SEQ ID NO: 23) (peptide)
chain: ADGPRSSLLGRMKGA
modifications: not checked
B2: fd fusion phage carrying … (SEQ ID NO: 14) (peptide)
chain: ADGALLGRMKPA
modifications: not checked
B3: fd fusion phage carrying … (SEQ ID NO: 16) (peptide)
chain: ADGALLGRMKRA
modifications: not checked
B4: fd fusion phage carrying … (SEQ ID NO: 24) (peptide)
chain: ADGAHRSLLGRMKGA
modifications: not checked
B5: fd fusion phage carrying … (SEQ ID NO: 19) (peptide)
chain: ADRSLLGRMKGA
modifications: not checked
B6: fd fusion phage carrying … (SEQ ID NO: 25) (peptide)
chain: ADGYQRSLLGRMKGA
modifications: not checked
B7: fd fusion phage carrying … (SEQ ID NO: 22) (peptide)
chain: ADGHRSSLLGRMKGA
modifications: not checked
B8: fd fusion phage carrying … (SEQ ID NO: 26) (peptide)
chain: ADGTQRSLLGRMKGA
modifications: not checked
B9: peptide … (SEQ ID NO: 40) (peptide)
peptide: MHRSLLGRMKGA
modifications: not checked
B10: fd fusion phage carrying … (SEQ ID NO: 20) (peptide)
chain: ADGSRSSLLGRMKGA
modifications: not checked
B11: fd fusion phage carrying … (SEQ ID NO: 15) (peptide)
chain: ADGSLLGRMKPA
modifications: not checked
B12: fd fusion phage carrying … (SEQ ID NO: 17) (peptide)
chain: ADGTLLGRMKLA
modifications: not checked

Tests used:
[1] = biological target: T1, HBV core antigen (hepatitis B virus), P03146; assay: relative dissociation constant (KD^Rel), fd fusion phage with HBV core antigen in solution
T1 chain: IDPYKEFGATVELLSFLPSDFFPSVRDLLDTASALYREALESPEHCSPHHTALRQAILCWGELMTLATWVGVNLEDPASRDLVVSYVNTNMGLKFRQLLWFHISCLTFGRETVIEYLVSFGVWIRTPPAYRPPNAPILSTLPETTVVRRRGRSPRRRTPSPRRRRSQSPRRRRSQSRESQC

[2] = biological target: T2, C-terminally truncated HBV core antigen (aa3-148) (hepatitis B virus), P03146; assay: EDC/sulpho-NHS crosslinking, SDS-PAGE band shift
T2 chain: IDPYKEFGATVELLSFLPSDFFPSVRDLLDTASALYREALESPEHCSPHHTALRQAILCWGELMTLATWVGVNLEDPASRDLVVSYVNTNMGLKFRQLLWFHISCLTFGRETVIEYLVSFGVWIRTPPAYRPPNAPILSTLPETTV

Row | Binder | Kd [1] [nM] | yield of the shifted (crosslinked) protein band [2] [%]
1 | B1 | 0.84 | –
2 | B2 | 767 | –
3 | B3 | 181 | –
4 | B4 | 0.94 | –
5 | B5 | 1.09 | –
6 | B6 | 0.88 | –
7 | B7 | 1.4 | –
8 | B8 | 0.84 | –
9 | B9 | – | < 50
10 | B10 | 1.96 | –
11 | B11 | 322 | –
12 | B12 | 20 | –
